Literature values in patent publication US9624506B2, “Glyphosate resistance enhancement” (Keygene N.V., priority 2011, dated 2017).

Assays:
[1] = Salmonella EPSPS; cited from earlier work
[2] = Salmonella EPSPS; cited from earlier work; remark: listed apart in the source

B1: T42M: T42M mutation in Salmonella EPSPS enzyme (protein, UniProt P07637 1-427, looked up, variant T42M)
3-phosphoshikimate …: MESLTLQPIARVDGAINLPGSKSVSNRALLLAALACGKTALMNLLDSDDVRHMLNALSALGINYTLSADRTRCDITGNGGALRAPGALELFLGNAGTAMRPLAAALCLGQNEIVLTGEPRMKERPIGHLVDSLRQGGANIDYLEQENYPPLRLRGGFTGGDIEVDGSVSSQFLTALLMTAPLAPKDTIIRVKGELVSKPYIDITLNLMKTFGVEIANHHYQQFVVKGGQQYHSPGRYLVEGDASSASYFLAAGAIKGGTVKVTGIGRKSMQGDIRFADVLEKMGATITWGDDFIACTRGELHAIDMDMNHIPDAAMTIATTALFAKGTTTLRNIYNWRVKETDRLFAMATELRKVGAEVEEGHDYIRITPPAKLQHADIGTYNDHRMAMCFSLVALSDTPVTILDPKCTAKTFPDYFEQLARMSTPA
higher tolerance for glyphosate [1]: 26 fold | lower affinity for its normal substrate (PEP) [2]: 25 fold
